Here are results for 1 substance from publication PMC4585913, “Crystal structure of Streptococcus pneumoniae pneumolysin provides key insights into early steps of pore formation” (Scientific Reports, 2015).

This assay concerns the target PLY R208A (Streptococcus pneumoniae) (UniProt P0C2J9).

“PLY R208A (from UniProt P0C2J9 2-470) (natural protein)” returned a cytolytic activity on human red blood cells, percent of native PLY activity (% native PLY activity) of 2.5.
